From patent US8771694 (IMMUNOMEDICS, dated 2014)

T1: CD22 (LL2 antigen on the surface of Raji cells) (UniProt P20273 20-847, limits assumed)
T1 construct: whole, on cells; All assays used whole Raji cells; also called Raji cell surface antigen; B-lymphoma cells
T1 sequence (looked up): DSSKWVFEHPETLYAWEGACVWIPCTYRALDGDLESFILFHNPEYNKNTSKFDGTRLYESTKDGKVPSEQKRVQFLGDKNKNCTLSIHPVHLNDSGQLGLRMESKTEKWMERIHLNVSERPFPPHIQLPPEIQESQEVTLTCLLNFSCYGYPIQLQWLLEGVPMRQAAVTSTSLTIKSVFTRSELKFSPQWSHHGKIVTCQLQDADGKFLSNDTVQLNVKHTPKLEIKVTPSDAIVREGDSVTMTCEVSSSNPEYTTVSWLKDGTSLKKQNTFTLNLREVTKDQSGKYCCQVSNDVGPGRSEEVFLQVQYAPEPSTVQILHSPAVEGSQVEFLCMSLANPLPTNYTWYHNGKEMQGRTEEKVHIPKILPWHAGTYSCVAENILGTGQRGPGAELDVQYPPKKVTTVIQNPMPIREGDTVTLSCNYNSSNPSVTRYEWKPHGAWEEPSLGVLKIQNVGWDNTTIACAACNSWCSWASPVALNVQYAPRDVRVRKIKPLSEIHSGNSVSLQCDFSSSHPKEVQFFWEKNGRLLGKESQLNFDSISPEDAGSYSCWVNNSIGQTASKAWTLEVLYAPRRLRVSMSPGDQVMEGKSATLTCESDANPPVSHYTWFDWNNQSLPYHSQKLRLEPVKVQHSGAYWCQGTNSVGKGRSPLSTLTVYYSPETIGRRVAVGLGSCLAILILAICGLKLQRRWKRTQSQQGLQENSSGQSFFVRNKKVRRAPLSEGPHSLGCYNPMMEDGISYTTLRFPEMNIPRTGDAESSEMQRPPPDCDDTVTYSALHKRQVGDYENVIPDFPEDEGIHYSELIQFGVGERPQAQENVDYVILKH


Biological target: T1, CD22 (LL2 antigen on the surface of …)
Assay: competition flow cytometry on Raji cells, competitor mLL2 F(ab')2
Experimental: The Raji cell surface antigen binding affinities of mix-and-match and fully humanized antibodies can be compared to that of cLL2 using various concentrations of mLL2 F(ab')_2 fragments devoid of the Fc portion as competitors, as evaluated by flow cytometry assay. Residual surface-bound LL2 antibodies carrying the human Fc portions (cLL2 and mix-and-match LL2) can be detected by a FITC-labeled anti-human Fc specific antibody in a flow cytometry assay.
Briefly, 1 µg of cLL2, mix-and-match LL2, hLL2-1 or hLL2-2 antibodies were incubated with […] Raji cells in the presence of varying concentrations of mLL2 F(ab')_2 fragments (as competitor) in a final volume of 100 µl of PBS buffer supplemented with 1% FCS and 0.01% sodium azide. The mixture was incubated for 30 minutes at 4° C., and washed three times with PBS to remove unbound antibodies. By taking advantage of the presence of human Fc portions in the antibodies, the binding levels of the antibodies were assessed by adding a 20×diluted FITC-labeled goat anti-human IgG1, Fc fragment-specific antibodies (Jackson ImmunoResearch, West Grove, Pa.). The cells were washed three times with PBS, and fluorescence intensities measured by a FACSCAN fluorescence activated cell sorter (Becton-Dickinson, Bedford, Mass.).

binding result | Binder
binds | humanized LL2 version 1 (antibody, human IgG1, V domains shown, VH has Q at Kabat position 5; also called hLL2-1; hLL2 with seven murine FR residues in the VH domain) VH: QVQLQQSGAEVKKPGSSVKVSCKASGYTFTSYWLHWVRQAPGQGLEWIGYINPRNDYTEYNQNFKDKATITADESTNTAYMELSSLRSEDTAFYFCARRDITTFYWGQGTTVTVSS VL: DIQLTQSPSSLSASVGDRVTMSCKSSQSVLYSANHKNYLAWYQQKPGKAPKLLIYWASTRESGVPSRFSGSGSGTDFTFTISSLQPEDIATYYCHQYLSSWTFGGGTKVQIKR
binds | humanized LL2 version 2 (antibody, human IgG1, V domains shown, VH has V at Kabat position 5; also called hLL2-2; hLL2) VH: QVQLVQSGAEVKKPGSSVKVSCKASGYTFTSYWLHWVRQAPGQGLEWIGYINPRNDYTEYNQNFKDKATITADESTNTAYMELSSLRSEDTAFYFCARRDITTFYWGQGTTVTVSS VL: DIQLTQSPSSLSASVGDRVTMSCKSSQSVLYSANHKNYLAWYQQKPGKAPKLLIYWASTRESGVPSRFSGSGSGTDFTFTISSLQPEDIATYYCHQYLSSWTFGGGTKVQIKR
